Data: patent publication US20230212549A1 (3B PHARMACEUTICALS, published 2023)
Where “and” joins values, the source holds several entries; their conditions need not be identical. Equal values may be shown once. Numbered stars: 1 amine (or outer) side, 2 acyl side, 3 side chain; on linkers, the order of the positions; unused ones are H or OH. Bridge positions count the residues as written; N and C are the ends. Square brackets hold non-standard residues; d marks the D form. * marks the point of attachment. tMeBn(DOTA-PP) = 1,3,5-trimethylbenzylidene, two thioethers to Cys, third CH2 bound to one N of piperazine whose other N bears DOTA, O=C(O)CN1CCN(CC(=O)O)CCN(CC(=O)N2CCN(Cc3cc(C[*:1])cc(C[*:2])c3)CC2)CCN(CC(=O)O)CC1; TBMB(SCH2CH2NH-DOTA) = O=C(O)CN1CCN(CC(=O)O)CCN(CC(=O)NCCSCc2cc(C[*:1])cc(C[*:2])c2)CCN(CC(=O)O)CC1; 3MeBn = 3-Methylbenzylidene (m-xylylene thioether bridge from α,α′-dibromo-m-xylene); N4Ac = 6-Carboxy-1,4,8,11-tetraazaundecane, an N4-chelator, NCCNCC(CNCCN)C(=O)*; DOTA = O=C(O)CN1CCN(CC(=O)O)CCN(CC(=O)*)CCN(CC(=O)O)CC1; Oic = O=C(O)[C@@H]1C[C@@H]2CCCC[C@@H]2N1; mXylylene = c1cc(C[*:1])cc(C[*:2])c1; NMeF = CN[C@@H](Cc1ccccc1)C(=O)O; Nle = CCCC[C@H](N)C(=O)O; Hexanoyl = CCCCCC(=O)*; AEEA = NCCOCCOCC(=O)O; Inp = O=C(O)C1CCNCC1; Ahx = NCCCCCC(=O)O; Sar = CNCC(=O)O

B1: Hex-[Cys(tMeBn(DOTA-PP))-Pro-Pro-Ala-Ala-Phe-Cys]-Asp-NH2 (peptide)
peptide: Hexanoyl-CPPAAFCD-NH2
modifications: linker 1-7 via tMeBn(DOTA-PP)
SMILES: CCCCCC(=O)N[C@H]1CSCc2cc(cc(CN3CCN(C(=O)CN4CCN(CC(=O)O)CCN(CC(=O)O)CCN(CC(=O)O)CC4)CC3)c2)CSC[C@@H](C(=O)N[C@@H](CC(=O)O)C(N)=O)NC(=O)[C@H](Cc2ccccc2)NC(=O)[C@H](C)NC(=O)[C@H](C)NC(=O)[C@@H]2CCCN2C(=O)[C@@H]2CCCN2C1=O
notes: also called 3BP-3746
B2: Hex-[Cys(tMeBn(DOTA-AET))-Nmg-Pro-Thr-Gln-Phe-Cys]-NH2 (peptide)
peptide: Hexanoyl-C[Sar]PTQFC-NH2
modifications: linker 1-7 via TBMB(SCH2CH2NH-DOTA)
SMILES: CCCCCC(=O)N[C@H]1CSCc2cc(CSCCNC(=O)CN3CCN(CC(=O)O)CCN(CC(=O)O)CCN(CC(=O)O)CC3)cc(c2)CSC[C@@H](C(N)=O)NC(=O)[C@H](Cc2ccccc2)NC(=O)[C@H](CCC(N)=O)NC(=O)[C@H]([C@@H](C)O)NC(=O)[C@@H]2CCCN2C(=O)CN(C)C1=O
notes: also called 3BP-3744
B3: Ac-Met-[Cys(3MeBn)-pro-Pro-Thr-Glu-Phe-Cys]-Asp-His-Phe-Arg-Asp-NH2 (peptide)
peptide: Ac-MC[dP]PTEFCDHFRD-NH2
modifications: linker 2-8 via mXylylene
SMILES: CSCC[C@H](NC(C)=O)C(=O)N[C@H]1CSCc2cccc(c2)CSC[C@@H](C(=O)N[C@@H](CC(=O)O)C(=O)N[C@@H](Cc2c[nH]cn2)C(=O)N[C@@H](Cc2ccccc2)C(=O)N[C@@H](CCCNC(=N)N)C(=O)N[C@@H](CC(=O)O)C(N)=O)NC(=O)[C@H](Cc2ccccc2)NC(=O)[C@H](CCC(=O)O)NC(=O)[C@H]([C@@H](C)O)NC(=O)[C@@H]2CCCN2C(=O)[C@H]2CCCN2C1=O
notes: also called 3BP-3176
B4: Hex-[Cys-(tMeBn(DOTA-AET))-Pro-Pro-Thr-Glu-Phe-Cys]-OH (peptide)
peptide: Hexanoyl-CPPTEFC-OH
modifications: linker 1-7 via TBMB(SCH2CH2NH-DOTA)
SMILES: CCCCCC(=O)N[C@H]1CSCc2cc(CSCCNC(=O)CN3CCN(CC(=O)O)CCN(CC(=O)O)CCN(CC(=O)O)CC3)cc(c2)CSC[C@@H](C(=O)O)NC(=O)[C@H](Cc2ccccc2)NC(=O)[C@H](CCC(=O)O)NC(=O)[C@H]([C@@H](C)O)NC(=O)[C@@H]2CCCN2C(=O)[C@@H]2CCCN2C1=O
notes: also called 3BP-4250
B5: Ac-Met-[Cys(3MeBn)-Pro-Pro-Thr-Glu-phe-Cys]-Asp-His-Phe-Arg-Asp-NH2 (peptide)
peptide: Ac-MCPPTE[dF]CDHFRD-NH2
modifications: linker 2-8 via mXylylene
SMILES: CSCC[C@H](NC(C)=O)C(=O)N[C@H]1CSCc2cccc(c2)CSC[C@@H](C(=O)N[C@@H](CC(=O)O)C(=O)N[C@@H](Cc2c[nH]cn2)C(=O)N[C@@H](Cc2ccccc2)C(=O)N[C@@H](CCCNC(=N)N)C(=O)N[C@@H](CC(=O)O)C(N)=O)NC(=O)[C@@H](Cc2ccccc2)NC(=O)[C@H](CCC(=O)O)NC(=O)[C@H]([C@@H](C)O)NC(=O)[C@@H]2CCCN2C(=O)[C@@H]2CCCN2C1=O
notes: also called 3BP-3180
B6: Ac-Met-[Cys(3MeBn)-Pro-Pro-Thr-Glu-Phe-Cys]-Asp-His-Phe-NH2 (peptide)
peptide: Ac-MCPPTEFCDHF-NH2
modifications: linker 2-8 via mXylylene
SMILES: CSCC[C@H](NC(C)=O)C(=O)N[C@H]1CSCc2cccc(c2)CSC[C@@H](C(=O)N[C@@H](CC(=O)O)C(=O)N[C@@H](Cc2c[nH]cn2)C(=O)N[C@@H](Cc2ccccc2)C(N)=O)NC(=O)[C@H](Cc2ccccc2)NC(=O)[C@H](CCC(=O)O)NC(=O)[C@H]([C@@H](C)O)NC(=O)[C@@H]2CCCN2C(=O)[C@@H]2CCCN2C1=O
notes: also called 3BP-3199
B7: Ac-Met-[Cys(3MeBn)-Oic-Pro-Thr-Glu-Phe-Cys]-Asp-His-Phe-Arg-Asp-NH2 (peptide)
peptide: Ac-MC[Oic]PTEFCDHFRD-NH2
modifications: linker 2-8 via mXylylene
SMILES: CSCC[C@H](NC(C)=O)C(=O)N[C@H]1CSCc2cccc(c2)CSC[C@@H](C(=O)N[C@@H](CC(=O)O)C(=O)N[C@@H](Cc2c[nH]cn2)C(=O)N[C@@H](Cc2ccccc2)C(=O)N[C@@H](CCCNC(=N)N)C(=O)N[C@@H](CC(=O)O)C(N)=O)NC(=O)[C@H](Cc2ccccc2)NC(=O)[C@H](CCC(=O)O)NC(=O)[C@H]([C@@H](C)O)NC(=O)[C@@H]2CCCN2C(=O)[C@@H]2C[C@@H]3CCCC[C@@H]3N2C1=O
notes: also called 3BP-3216
B8: Ac-Met-[Cys(3MeBn)-Pro-Oic-Thr-Glu-Phe-Cys]-Asp-His-Phe-Arg-Asp-NH2 (peptide)
peptide: Ac-MCP[Oic]TEFCDHFRD-NH2
modifications: linker 2-8 via mXylylene
SMILES: CSCC[C@H](NC(C)=O)C(=O)N[C@H]1CSCc2cccc(c2)CSC[C@@H](C(=O)N[C@@H](CC(=O)O)C(=O)N[C@@H](Cc2c[nH]cn2)C(=O)N[C@@H](Cc2ccccc2)C(=O)N[C@@H](CCCNC(=N)N)C(=O)N[C@@H](CC(=O)O)C(N)=O)NC(=O)[C@H](Cc2ccccc2)NC(=O)[C@H](CCC(=O)O)NC(=O)[C@H]([C@@H](C)O)NC(=O)[C@@H]2C[C@@H]3CCCC[C@@H]3N2C(=O)[C@@H]2CCCN2C1=O
notes: also called 3BP-3217
B9: DOTA-Inp-[Cys(3MeBn)-Pro-Pro-Thr-Glu-Phe-Cys]-Asp-His-Nmf-Arg-Asp-NH2 (peptide)
peptide: {DOTA}-[Inp]CPPTEFCDH[NMeF]RD-NH2
modifications: linker 2-8 via mXylylene
SMILES: C[C@@H](O)[C@@H]1NC(=O)[C@@H]2CCCN2C(=O)[C@@H]2CCCN2C(=O)[C@@H](NC(=O)C2CCN(C(=O)CN3CCN(CC(=O)O)CCN(CC(=O)O)CCN(CC(=O)O)CC3)CC2)CSCc2cccc(c2)CSC[C@@H](C(=O)N[C@@H](CC(=O)O)C(=O)N[C@@H](Cc2c[nH]cn2)C(=O)N(C)[C@@H](Cc2ccccc2)C(=O)N[C@@H](CCCNC(=N)N)C(=O)N[C@@H](CC(=O)O)C(N)=O)NC(=O)[C@H](Cc2ccccc2)NC(=O)[C@H](CCC(=O)O)NC1=O
notes: also called 3BP-3265
B10: DOTA-Ahx-[Cys(3MeBn)-Pro-Pro-Thr-Glu-Phe-Cys]-Asp-His-Nmf-Arg-Asp-NH2 (peptide)
peptide: {DOTA}-[Ahx]CPPTEFCDH[NMeF]RD-NH2
modifications: linker 2-8 via mXylylene
SMILES: C[C@@H](O)[C@@H]1NC(=O)[C@@H]2CCCN2C(=O)[C@@H]2CCCN2C(=O)[C@@H](NC(=O)CCCCCNC(=O)CN2CCN(CC(=O)O)CCN(CC(=O)O)CCN(CC(=O)O)CC2)CSCc2cccc(c2)CSC[C@@H](C(=O)N[C@@H](CC(=O)O)C(=O)N[C@@H](Cc2c[nH]cn2)C(=O)N(C)[C@@H](Cc2ccccc2)C(=O)N[C@@H](CCCNC(=N)N)C(=O)N[C@@H](CC(=O)O)C(N)=O)NC(=O)[C@H](Cc2ccccc2)NC(=O)[C@H](CCC(=O)O)NC1=O
notes: also called 3BP-3266
B11: DOTA-O2Oc-[Cys(3MeBn)-Pro-Pro-Thr-Glu-Phe-Cys]-Asp-His-Nmf-Arg-Asp-NH2 (peptide)
peptide: {DOTA}-[AEEA]CPPTEFCDH[NMeF]RD-NH2
modifications: linker 2-8 via mXylylene
SMILES: C[C@@H](O)[C@@H]1NC(=O)[C@@H]2CCCN2C(=O)[C@@H]2CCCN2C(=O)[C@@H](NC(=O)COCCOCCNC(=O)CN2CCN(CC(=O)O)CCN(CC(=O)O)CCN(CC(=O)O)CC2)CSCc2cccc(c2)CSC[C@@H](C(=O)N[C@@H](CC(=O)O)C(=O)N[C@@H](Cc2c[nH]cn2)C(=O)N(C)[C@@H](Cc2ccccc2)C(=O)N[C@@H](CCCNC(=N)N)C(=O)N[C@@H](CC(=O)O)C(N)=O)NC(=O)[C@H](Cc2ccccc2)NC(=O)[C@H](CCC(=O)O)NC1=O
notes: also called 3BP-3267

Columns and labels:
[1] = molecular target: T1, human fibroblast activation protein (FAP) on WI-38 fibroblasts (human, UniProt Q12884 1-760); assay: competitive FACS, WI-38 cells, Cy5-labeled peptide as competitor
T1 construct: FAP-expressing human WI-38 fibroblasts (ECACC)

[2] = molecular target: T2, Recombinant human FAP (R&D systems, #3715-SE) (human, UniProt Q12884 26-760); assay: cell-based or functional assay
[3] = molecular target: T3, fibroblast activation protein (FAP) on FAP-expressing human WI-38 fibroblasts (human, UniProt Q12884 1-760); assay: competitive FACS, WI-38 cells, vs Cy5 tracer m3; C = pIC50 6.1-7.0
T3 construct: also called human FAP

[4] = molecular target: Recombinant human FAP (R&D systems, #3715-SE) (human, UniProt Q12884 26-760); assay: cell-based or functional assay; remark: listed apart in the source
[5] = molecular target: T2, Recombinant human FAP (R&D systems, …); assay: SPR (Biacore T200), FAP captured on anti-FAP antibody, single cycle kinetics

pIC50 Category (FACS) [1]	pIC50 Category (Activity) [2]	pIC50 Category (FACS) [3]	pIC50 Category (Activity) [4]	pKD Category [5]	Binder
≤ 6 pIC50					B1
> 8 pIC50	> 8 pIC50				B2
		6.1 pIC50 and 7 pIC50	6.1 pIC50 and 7 pIC50		B3
> 8 pIC50				> 8 pKD	B4
		6.1 pIC50 and 7 pIC50	6.1 pIC50 and 7 pIC50		B5
		6.1 pIC50 and 7 pIC50	7.1 pIC50 and 8 pIC50		B6
		6.1 pIC50 and 7 pIC50	6.1 pIC50 and 7 pIC50		B7
		6.1 pIC50 and 7 pIC50	6.1 pIC50 and 7 pIC50		B8
		6.1 pIC50 and 7 pIC50	6.1 pIC50 and 7 pIC50		B9
		6.1 pIC50 and 7 pIC50	6.1 pIC50 and 7 pIC50		B10
		6.1 pIC50 and 7 pIC50	6.1 pIC50 and 7 pIC50		B11
≤ 6 pIC50					N4Ac-[AEEA][Nle]CPPTEFC-OH (linker 3-9 via 3MeBn, also called 3BP-4228) [N4Ac-O2Oc-Nle-[Cys-(3MeBn)-Pro-Pro-Thr-Glu-Phe-Cys]-OH]
